Assay results as given in patent publication US20240100159A1, “USE OF IL-7R-ALPHA-GAMMA AGONIST PEPTIDES IN CELL MANUFACTURING” (MEDIKINE, INC., priority 2022, published 2024).

Target: T1, hu-IL-7Rα subunit (human, UniProt P16871 21-239, limits assumed)
T1 construct: also called human interleukin-7 receptor subunit α; CD127
T1 sequence (looked up): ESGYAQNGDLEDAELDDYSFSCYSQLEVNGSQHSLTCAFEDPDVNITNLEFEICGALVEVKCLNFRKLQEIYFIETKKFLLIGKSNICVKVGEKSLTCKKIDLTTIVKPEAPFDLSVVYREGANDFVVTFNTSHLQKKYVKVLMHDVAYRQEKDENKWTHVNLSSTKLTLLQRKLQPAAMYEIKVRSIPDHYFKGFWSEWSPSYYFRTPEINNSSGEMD
Assay: phage ELISA competition assay

SLTVPWCTLDPGSMQCAWLQNR (also called IL-7Rα ligand) [SEQ ID NO 112]
IC50: < 10 µM
